Data reported in publication PMC4370339 (Journal of molecular biology, 2014).
Numbering of substitutions follows the chain as printed. In names and notes the source's numbering stands.

T1: SecBE77K parent carrying A129C (b) (Escherichia coli, UniProt P0AG86 1-155, E77K | A129C | C102L)
T1 sequence (looked up): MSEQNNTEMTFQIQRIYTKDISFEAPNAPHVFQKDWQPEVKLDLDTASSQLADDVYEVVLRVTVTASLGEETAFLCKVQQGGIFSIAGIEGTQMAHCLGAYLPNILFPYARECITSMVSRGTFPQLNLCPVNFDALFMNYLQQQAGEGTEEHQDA

T2: SecBA129C (A, otherwise wild-type) (Escherichia coli, UniProt P0AG86 1-155, A129C | C102L)
T2 sequence (looked up): T1 sequence (looked up) with K77E

T3: SecBQ12C E77K (B) (Escherichia coli, UniProt P0AG86 1-155, Q12C | E77K | C102L)
T3 sequence (looked up): T1 sequence (looked up) with Q12C, C129A

B1: SecB142 parent carrying Q12C (C) (domain or fragment, Escherichia coli, UniProt P0AG86 1-142, looked up)
chain: MSEQNNTEMTFCIQRIYTKDISFEAPNAPHVFQKDWQPEVKLDLDTASSQLADDVYEVVLRVTVTASLGEETAFLCEVQQGGIFSIAGIEGTQMAHCLGAYLPNILFPYARECITSMVSRGTFPQLNLAPVNFDALFMNYLQ
B2: SecB142,E77K parent carrying Q12C (D) (domain or fragment, Escherichia coli, UniProt P0AG86 1-142, looked up)
chain: B1 chain with E77K
B3: SecBL75Q (natural protein, Escherichia coli)
chain: MSEQNNTEMTFQIQRIYTKDISFEAPNAPHVFQKDWQPEVKLDLDTASSQLADDVYEVVLRVTVTASLGEETAFQCEVQQGGIFSIAGIEGTQMAHCLGAYCPNILFPYARECITSMVSRGTFPQLNLAPVNFDALFMNYLQQQAGEGTEEHQ
B4: SecB wild-type (natural protein, Escherichia coli, UniProt P0AG86 1-155, looked up)
chain: T1 sequence (looked up) with K77E, L102C, C129A
B5: SecB wild-type parent carrying Q12C (A) (natural protein, Escherichia coli, UniProt P0AG86 1-155, looked up)
chain: T1 sequence (looked up) with Q12C, K77E, C129A
B6: SecB142 parent carrying A129C (c) (domain or fragment, Escherichia coli, UniProt P0AG86 1-142, looked up)
chain: B1 chain with C12Q, A129C
B7: SecB142,E77K parent carrying A129C (d) (domain or fragment, Escherichia coli, UniProt P0AG86 1-142, looked up)
chain: B1 chain with C12Q, E77K, A129C

Experiments:
SecB (Escherichia coli) = SecB (Escherichia coli) (UniProt P0AG86); assay: ITC; conditions: cited from earlier work
[1] = target: T1, SecBE77K parent carrying A129C (b); assay: cross-linking
[2] = target: B7; assay: cross-linking
[3] = target: T2, SecBA129C (A, otherwise wild-type); assay: cross-linking
[4] = target: B6; assay: cross-linking
SecA [5] = target: T4, SecA (Escherichia coli, UniProt P10408 1-901); assay: SEC-MALS
AUC = target: the molecule itself; assay: AUC
SecA [6] = target: T4, SecA; assay: SEC
SecBQ12C E77K (B) = target: T3, SecBQ12C E77K (B); assay: cross-linking
[7] = target: B5; assay: cross-linking

T4 sequence (P10408 whole entry): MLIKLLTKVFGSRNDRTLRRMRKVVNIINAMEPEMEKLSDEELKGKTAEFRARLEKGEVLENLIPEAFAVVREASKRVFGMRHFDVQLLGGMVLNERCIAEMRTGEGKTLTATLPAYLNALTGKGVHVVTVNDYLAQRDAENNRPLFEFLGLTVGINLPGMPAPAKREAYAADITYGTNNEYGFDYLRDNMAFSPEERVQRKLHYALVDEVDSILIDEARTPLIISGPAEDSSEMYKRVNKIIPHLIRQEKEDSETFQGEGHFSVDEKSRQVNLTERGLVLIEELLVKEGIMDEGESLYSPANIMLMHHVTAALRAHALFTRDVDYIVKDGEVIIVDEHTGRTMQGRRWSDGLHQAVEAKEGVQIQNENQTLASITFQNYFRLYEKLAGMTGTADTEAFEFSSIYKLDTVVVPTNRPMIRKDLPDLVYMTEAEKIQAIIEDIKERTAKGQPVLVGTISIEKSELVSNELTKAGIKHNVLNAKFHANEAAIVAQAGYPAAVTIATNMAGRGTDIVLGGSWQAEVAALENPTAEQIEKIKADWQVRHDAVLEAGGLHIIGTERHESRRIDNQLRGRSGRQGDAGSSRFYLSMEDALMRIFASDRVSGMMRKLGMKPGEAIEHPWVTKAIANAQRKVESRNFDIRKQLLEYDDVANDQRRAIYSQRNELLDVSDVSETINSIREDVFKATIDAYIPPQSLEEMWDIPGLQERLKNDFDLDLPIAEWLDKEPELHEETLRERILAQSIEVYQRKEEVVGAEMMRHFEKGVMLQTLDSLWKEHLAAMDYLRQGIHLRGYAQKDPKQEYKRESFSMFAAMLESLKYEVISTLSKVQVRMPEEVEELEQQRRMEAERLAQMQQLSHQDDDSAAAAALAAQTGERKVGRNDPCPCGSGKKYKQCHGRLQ

Molecule: SecA 2-11 (from UniProt P10408)
Kd (SecB (Escherichia coli)): 30 µM

Molecule: B1
binding result [1]: binds
binding result [2]: binds
binding result [3]: binds

Molecule: B2
binding result [1]: binds
binding result [4]: binds
binding result [3]: binds

Molecule: B3
stoichiometry N (SecA [5]): 1 SecA protomers per SecB tetramer

Molecule: B4
binding result (AUC): binds
relative affinity (ratio of Kds) against radiolabeled SecB (SecA [6]): 0.82 unitless

Molecule: B5
binding result [3]: binds

Molecule: B6
binding result (SecBQ12C E77K (B)): binds

Molecule: B7
binding result [7]: binds
